From US20210079074A1 come the findings set out here.

Changes are numbered by the printed parent chain.

First the molecules themselves.
B1: anti-MS4A4A antibody 4A-357 (antibody, V domains shown)
VH: QVQLVQSGSELKKPGASVKVSCKASGYIFTSYGLSWVRQAPGQGLEWMGWINTYSGVPTYAQGFTGRFVFSLDTSVSTAYLQISSLKAEDTAVYYCARTLADYWGQGTLVTVSS
VL: DVVMTQSPLSLPVTLGQPASISCKSSQSLLYSDGKTYLSWFQQRPGQSPRRLIYEVSKLDSGVPDRFSGSGSGTDFTLKISRVEAEDVGVYYCWQGIDFHQTFGGGTKVEIK
B2: anti-MS4A4A antibody 4A-363 (antibody, V domains shown)
VH: B1 VH
VL: B1 VL with E55L, D60S
B3: anti-MS4A4A antibody 4A-361 (antibody, V domains shown)
VH: B1 VH
VL: B1 VL with E55L, D60E
B4: anti-MS4A4A antibody 4A-375 (antibody, V domains shown)
VH: B1 VH with T99S
VL: B1 VL with Q27R, E55L
B5: anti-MS4A4A antibody 4A-366 (antibody, V domains shown)
VH: B1 VH with I28T, V37I, L100M, A101V
VL: B1 VL with Q27R, E55L
B6: anti-MS4A4A antibody 4A-364 (antibody, V domains shown)
VH: B1 VH with I28T, V37I, L100M, A101V
VL: B1 VL with S25A, E55L, T74A
B7: anti-MS4A4A antibody 4A-374 (antibody, V domains shown)
VH: B1 VH with T65A, A101V
VL: B1 VL with Q27R, E55L
B8: anti-MS4A4A antibody 4A-368 (antibody, V domains shown)
VH: B1 VH with I28T, V37I, L100M, A101V
VL: B1 VL with E55L, D60E
B9: anti-MS4A4A antibody 4A-365 (antibody, V domains shown)
VH: B1 VH with I28T, V37I, L100M, A101V
VL: B1 VL with E55L, D60S
B10: anti-MS4A4A antibody 4A-371 (antibody, V domains shown)
VH: B1 VH with A101G
VL: B1 VL with E55L
B11: anti-MS4A4A antibody 4A-370 (antibody, V domains shown)
VH: B1 VH with A101G
VL: B1 VL with S26G, E55L, K58R
B12: anti-MS4A4A antibody 4A-359 (antibody, V domains shown)
VH: B1 VH
VL: B1 VL with S25A, E55L, T74A
B13: anti-MS4A4A antibody 4A-372 (antibody, V domains shown)
VH: B1 VH with A101G
VL: B1 VL with E55L, K58R
B14: anti-MS4A4A antibody 4A-367 (antibody, V domains shown)
VH: B1 VH with I28T, V37I, L100M, A101V
VL: B1 VL with E55L
B15: anti-MS4A4A antibody 4A-21 (antibody, V domains shown)
VH: QIQLVQSGPELKKPGETVKISCKASGYIFTSYGLSWVKQTPGKGLKWMGWINTYSGVPTYANDFKGRFAFSLETSASTTYLRINNLKNDDTATYFCARSLVDYWGQGTPLTVSS
VL: not shown

One assay addresses recombinant MS4A4A soluble polypeptide JS5. In words: ELISA, 0.4 ug/ml antibody.
Conditions: not given
Consider B1, for which the OD450 turned out to be 0.892.

For the molecule B2, the OD450 is 0.833.

For B3, the OD450 came to 0.79.

On to B4, for which the OD450 was 0.996.

B5: the OD450 was 0.875.

For the molecule B6, the OD450 worked out at 0.959.

B7: the OD450 is 0.833.

Turning to B8, the OD450 came out at 0.901.

Take B9: the OD450 came out at 0.845.

Regarding B10, the OD450 turned out to be 0.955.

With B11, the OD450 is 0.822.

Consider B12, for which the OD450 worked out at 0.892.

For the molecule B13, the OD450 was 0.873.

For the molecule B14, the OD450 was determined as 0.961.

The next assay has as its target human MS4A4A (human), Q96JQ5. Put plainly: FACS, U937-huMS4A4A, 5 ug/ml. The following applies: remark: other sources report otherwise. A general note: In flow cytometry, cells or beads pass a laser one at a time.
For B15, the MFI was 670.

Another assay has as its target human MS4A4A (human), Q96JQ5. Put plainly: FACS, U937-huMS4A4A, 5 ug/ml. The following applies: remark: other sources report otherwise. The source holds these as a separate data set.
As for B15, the MFI was 18800.
